# Measurements taken from US20260209348A1 (University of California, published 2026).
# Numbering of substitutions follows the chain as printed.
# B1: h6E6-057 (antibody, human IgG1, V domains shown)
# VH: EVQLVESGGGLVKPGGSLRLSCAASGFTFSHYGVSWVRQAPGKGLEWVSTISSGGGYTHYVASVKGRFTISRDNAKNSLYLQMNSLRAEDTAVYYCARHPRDFSYALDYWGQGTTVTVSS
# VL: EIVMTQSPATLSVSPGERATLSCKASQDVGHYVAWYQQKPGQAPRLLIYWASTRATGIPARFSGSGSGTEFTLTISSLQSEDFAVYYCQQYNIYPWAFGQGTKVEIK
# notes: human IgG1; also called clone 57
# B2: h6E6-077 (antibody, human IgG1, V domains shown)
# VH: B1 VH with V34T, V61A, A62P, L107I
# VL: B1 VL with A97T
# notes: human IgG1; also called clone 77
# B3: h6E6-070 (antibody, human IgG1, V domains shown)
# VH: B1 VH with H31Q, V34H, V61A, A62H, L107N
# VL: B1 VL with K24R, V33L, A97T
# notes: human IgG1; Alexa647 conjugate in flow cytometry; also called clone 70
# B4: h6E6-063 (antibody, human IgG1, V domains shown)
# VH: B1 VH with H31A, V34T, H59Y, V61A, L107I
# VL: B1 VL with K24R, V33L, A97T
# notes: human IgG1; also called clone 63
# B5: h6E6-068 (antibody, human IgG1, V domains shown)
# VH: B1 VH with H31S, V34I, V61A, A62H
# VL: B1 VL with V33L, A97T
# notes: human IgG1; also called clone 68
# B6: h6E6-066 (antibody, human IgG1, V domains shown)
# VH: B1 VH with H31A, V34S, V61A, A62P, L107H
# VL: B1 VL with A55H, A97T
# notes: human IgG1; also called clone 66
# B7: h6E6-107 (antibody, human IgG1, V domains shown)
# VH: B1 VH with H31T, V34A, V61A, A62P
# VL: B1 VL with A97T
# notes: human IgG1; also called clone 107
# B8: h6E6-072 (antibody, human IgG1, V domains shown)
# VH: B1 VH with H31Q, V34H, V61A, A62D, L107Q
# VL: B1 VL with V33L, A55H, A97T
# notes: human IgG1; also called clone 72
# B9: h6E6-102 (antibody, human IgG1, V domains shown)
# VH: B1 VH with H31K, V34L, A62E, L107S
# VL: B1 VL with A97T
# notes: human IgG1; also called clone 102
# B10: h6E6-116 (antibody, human IgG1, V domains shown)
# VH: B1 VH with H31T, V61A, A62G
# VL: B1 VL with K24R, V33L, A97T
# notes: human IgG1; Alexa647 conjugate in flow cytometry
# B11: h6E6-058 (antibody, human IgG1, V domains shown)
# VH: B1 VH with H31V, V34L, H59Q, V61A, A62P, L107F
# VL: B1 VL with V33L, A97T
# notes: human IgG1; also called clone 58
# B12: h6E6-116 anti-human ROR2 chimeric antigen receptor (other, not shown: small tags and cut ends)
# chain: EVQLVESGGGLVKPGGSLRLSCAASGFTFSTYGVSWVRQAPGKGLEWVSTISSGGGYTHYAGSVKGRFTISRDNAKNSLYLQMNSLRAEDTAVYYCARHPRDFSYALDYWGQGTTVTVSSEIVMTQSPATLSVSPGERATLSCRASQDVGHYLAWYQQKPGQAPRLLIYWASTRATGIPARFSGSGSGTEFTLTISSLQSEDFAVYYCQQYNIYPWTFGQGTKVEIK
# notes: Expressed on transfected Jurkat cells
# Biological target: T1, human ROR2 (human, UniProt Q01974 34-403, limits assumed)
# Assay: SPR
# How it was run: (§1)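 Using surface plasmon resonance, the dissociation constant (Kd, nM) was determined for binding of humanized anti-human ROR2 monoclonal antibodies to human ROR2. These antibodies carry murine complementarity-determining regions in human acceptor frameworks and a human IgG1 constant region. No antigen format, concentrations, temperature, buffer or replicate count is stated.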
# T1 sequence (Q01974 34-403 limits assumed): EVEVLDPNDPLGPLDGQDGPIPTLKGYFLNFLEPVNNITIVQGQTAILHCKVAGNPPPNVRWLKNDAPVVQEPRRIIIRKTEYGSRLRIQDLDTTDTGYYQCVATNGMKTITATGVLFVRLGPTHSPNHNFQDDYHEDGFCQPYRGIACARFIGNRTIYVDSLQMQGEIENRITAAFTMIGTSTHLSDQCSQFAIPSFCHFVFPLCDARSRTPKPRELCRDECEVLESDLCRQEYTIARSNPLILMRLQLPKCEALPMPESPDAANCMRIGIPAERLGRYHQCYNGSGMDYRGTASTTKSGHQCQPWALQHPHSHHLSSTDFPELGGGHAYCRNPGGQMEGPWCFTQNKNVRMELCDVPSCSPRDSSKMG
row,Kd [nM],Binder
1,0.463,B1
2,0.155,B2
3,0.165,B3
4,0.475,B4
5,0.362,B5
6,0.353,B6
7,0.422,B7
8,0.38,B8
9,0.319,B9
10,0.348,B10
11,0.187,B11

# Biological target: T1, human ROR2
# Assay: SPR
# Remark: another data set of the same source
# How it was run: as §1
row,Kd [nM],Binder
1,0.463,B1
2,0.155,B2
3,0.165,B3
4,0.475,B4
5,0.362,B5
6,0.353,B6
7,0.422,B7
8,0.38,B8
9,0.319,B9
10,0.348,B10
11,0.187,B11

# Biological target: T2, recombinant ROR1 (Homo sapiens (Human), UniProt Q01973 30-406)
# Assay: dot blot on nylon membrane, anti-human IgG-HRP
# T2 sequence (Q01973 30-406 limits assumed): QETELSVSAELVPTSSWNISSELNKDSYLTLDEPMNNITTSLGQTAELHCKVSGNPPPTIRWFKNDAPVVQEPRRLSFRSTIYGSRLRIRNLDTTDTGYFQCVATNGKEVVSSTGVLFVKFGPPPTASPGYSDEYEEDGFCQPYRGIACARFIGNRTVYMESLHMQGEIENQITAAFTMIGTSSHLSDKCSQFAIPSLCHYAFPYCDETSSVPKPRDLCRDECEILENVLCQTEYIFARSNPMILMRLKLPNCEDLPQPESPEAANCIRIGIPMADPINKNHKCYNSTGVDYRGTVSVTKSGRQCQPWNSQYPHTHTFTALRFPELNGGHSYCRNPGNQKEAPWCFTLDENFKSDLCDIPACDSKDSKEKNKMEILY
row,binding result,Binder
1,no binding,B1
2,no binding,B2
3,no binding,B3
4,no binding,B5
5,no binding,B6
6,no binding,B7
7,no binding,B8
8,no binding,B9
9,no binding,B10

# Biological target: T3, recombinant mouse ROR2 (extracellular portion) (mouse, UniProt Q9Z138 34-403)
# T3 construct: also called mROR2
# Assay: dot blot on nylon membrane, anti-human IgG-HRP
# T3 sequence (Q9Z138 other isoform, or with tags, fused parts or gaps limits assumed): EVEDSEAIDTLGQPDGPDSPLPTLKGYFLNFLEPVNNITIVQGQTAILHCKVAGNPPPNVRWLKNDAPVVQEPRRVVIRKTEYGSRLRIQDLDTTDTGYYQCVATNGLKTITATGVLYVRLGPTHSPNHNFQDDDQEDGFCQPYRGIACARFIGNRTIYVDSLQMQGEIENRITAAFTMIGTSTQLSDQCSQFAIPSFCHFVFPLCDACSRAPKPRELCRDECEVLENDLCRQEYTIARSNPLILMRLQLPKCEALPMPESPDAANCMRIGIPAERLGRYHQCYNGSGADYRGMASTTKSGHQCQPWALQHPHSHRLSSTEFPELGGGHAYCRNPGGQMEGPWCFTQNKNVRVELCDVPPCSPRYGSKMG
row,binding result,Binder
1,no binding,B1
2,no binding,B2
3,no binding,B5
4,no binding,B6
5,no binding,B7
6,no binding,B8
7,no binding,B9
8,no binding,B10

# Biological target: T4, recombinant human ROR2 H349R (human, UniProt Q01974 34-403)
# T4 construct: Human residue replaced with the mouse residue
# Assay: dot blot on nylon membrane, anti-human IgG-HRP
# T4 sequence (Q01974 34-403 H349R limits assumed): as the sequence (Q01974 34-403 limits assumed) above, with H316R counted along it
row,binding result,Binder
1,no binding,B1
2,no binding,B2
3,no binding,B3
4,no binding,B5
5,no binding,B6
6,no binding,B7
7,no binding,B8
8,no binding,B9
9,no binding,B10

# Biological target: T5, recombinant human ROR2 D354E (human, UniProt Q01974 34-403)
# Assay: dot blot on nylon membrane, anti-human IgG-HRP
# T5 sequence (Q01974 34-403 D354E limits assumed): as the sequence (Q01974 34-403 limits assumed) above, with D321E counted along it
row,binding result,Binder
1,no binding,B1
2,no binding,B2
3,no binding,B3
4,no binding,B5
5,no binding,B6
6,no binding,B7
7,no binding,B8
8,no binding,B9
9,no binding,B10

# Biological target: T2, recombinant ROR1
# Assay: dot blot of arrayed recombinant proteins (key on the sheet)
row,binding result,Binder
1,no binding,B4
2,no binding,B11

# Biological target: T3, recombinant mouse ROR2 (extracellular …)
# Assay: as above
row,binding result,Binder
1,no binding,B3
2,no binding,B4
3,no binding,B11

# Biological target: T4, recombinant human ROR2 H349R
# Assay: as above
row,binding result,Binder
1,no binding,B4
2,no binding,B11

# Biological target: T5, recombinant human ROR2 D354E
# Assay: as above
row,binding result,Binder
1,no binding,B4
2,no binding,B11

# Biological target: T6, ROR1-Ig (human, UniProt Q01973 30-406)
# T6 construct: extracellular domain; also called control ROR1-Ig; not shown: CH2-CH3 constant region domains of human IgG1 (same human IgG domains as ROR2-Ig)
# Assay: flow cytometry, ROR1-Ig then anti-human IgG-PE, Jurkat cells transfected with the CAR
# Protocol: All cells were assessed after 48 hours by flow cytometry for binding of recombinant human ROR2-Ig protein comprised of the ROR2 extracellular domain and the CH2-CH3 constant region domains of human IgG1. Cells were stained on ice for 20 minutes with 1 μg/ml of recombinant ROR2-Ig (upper panel) or 1 μg/ml of control ROR1-Ig (lower panel). washed, stained for an additional 20 minutes on ice with phycoerythrin (PE)-conjugated anti-human IgG1 antibody, washed and analyzed by flow cytometry. Shaded histograms depict the relative fluorescence intensity (x axis) of viable cells, as determined by light scatter characteristics, stained with either ROR2-Ig or ROR1-Ig compared to cells stained with the anti-human IgG1-PE antibody only (open histograms). […] Conversely, ROR1 CAR transfected cells bind only to ROR1-Ig.
# T6 sequence (Q01973 30-406): as the sequence (Q01973 30-406 limits assumed) above
row,binding result,Binder
1,no binding (tested: 1 ug/ml),B12
